Source: IntAct's records for PubMed 21596426

What was measured:
h32_human H3C13 = h32_human H3C13 (UniProt Q71DI3)
h4_human H4C16 = h4_human H4C16 (UniProt P62805)

| Substance | effect of a mutation on the interaction (h32_human H3C13) | effect of a mutation on the interaction (h4_human H4C16) |
| --- | --- | --- |
| Nucleosome-remodeling factor subunit BPTF (Homo sapiens) (from UniProt Q12830-4) W2748E | disrupting interaction |  |
| Nucleosome-remodeling factor subunit BPTF (Homo sapiens) (from UniProt Q12830-4) F2870A |  | disrupting interaction |
